From publication PMC11417369, “DNA sequence and chromatin differentiate sequence-specific transcription factor binding in the human malaria parasite Plasmodium falciparum”

T1: SIP2 D1 (Plasmodium falciparum, UniProt C6KSN9 177-235)
T1 sequence: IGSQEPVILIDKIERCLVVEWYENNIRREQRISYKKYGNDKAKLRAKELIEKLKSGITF

T2: PF3D7_0420300 D1 (Plasmodium falciparum, UniProt Q8I1N6 1956-2015)
T2 sequence: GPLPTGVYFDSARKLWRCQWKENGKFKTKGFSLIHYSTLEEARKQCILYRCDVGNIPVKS


Key:
[1] = target: T1, SIP2 D1; experiment: gcPBM; about 25 ug protein; PBS, 1% milk, 0.2 mg/ml BSA, salmon testes DNA, 0.03% Triton X-100; settings: tags: N-terminal GST (pGEX-4T-1), kept; label: surface-attached array probe
[2] = target: T2, PF3D7_0420300 D1; experiment: as above; settings: tags: N-terminal GST (pGEX-4T-1), kept; label: surface-attached array probe

| Binder | binding signal [1] | binding signal [2] |
| --- | --- | --- |
| GTGCAC_site10768 (dsDNA) DNA 1: TATATATATCTTTTGGTGCATATTTCGAATATATGT DNA 2: ACATATATTCGAAATATGCACCAAAAGATATATATA | 10.2 ln median PBM intensity, better of two orientations | – |
| GTGCAC_site9916 (dsDNA) DNA 1: TATTTCTTTTGGTTGGTGCATAAAATAATACAATAT DNA 2: ATATTGTATTATTTTATGCACCAACCAAAAGAAATA | 10.2 ln median PBM intensity, better of two orientations | – |
| GTGCAC_site9748 (dsDNA) DNA 1: GTTAATCACCATGTGGTGCATATAAGGGCATATTAT DNA 2: ATAATATGCCCTTATATGCACCACATGGTGATTAAC | 10.1 ln median PBM intensity, better of two orientations | – |
| GTGCAC_site10625 (dsDNA) DNA 1: TTTTTATTTTCATATGTGCACTTATATATATATATA DNA 2: TATATATATATATAAGTGCACATATGAAAATAAAAA | 10.1 ln median PBM intensity, better of two orientations | – |
| GTGCAC_site10077 (dsDNA) DNA 1: TTCATTCAAATTAACGTGCACATTATTAGTAAAAAC DNA 2: GTTTTTACTAATAATGTGCACGTTAATTTGAATGAA | 10 ln median PBM intensity, better of two orientations | – |
| GTGCAC_site10360 (dsDNA) DNA 1: TACCCTTGCATGTAGGTGCAATTTTTTTTTTTTTTT DNA 2: AAAAAAAAAAAAAAATTGCACCTACATGCAAGGGTA | 10 ln median PBM intensity, better of two orientations | – |
| GTGCAC_site9783 (dsDNA) DNA 1: TAAATTTATATATAGGTGCGCAATTTGATAATAGTT DNA 2: AACTATTATCAAATTGCGCACCTATATATAAATTTA | 10 ln median PBM intensity, better of two orientations | – |
| GTGCAC_site10182 (dsDNA) DNA 1: GTATGATGCATAAGAGTGCATAAGGATATTTCTTCA DNA 2: TGAAGAAATATCCTTATGCACTCTTATGCATCATAC | 9.94 ln median PBM intensity, better of two orientations | – |
| GTGCAC_site9739 (dsDNA) DNA 1: TTATAAATATTCACTGTGCACTGATGGAATATAAAT DNA 2: ATTTATATTCCATCAGTGCACAGTGAATATTTATAA | 9.91 ln median PBM intensity, better of two orientations | – |
| GTGCAC_site9963 (dsDNA) DNA 1: AATAATAAAAATATTGTGCACTTGTATATTTATTAT DNA 2: ATAATAAATATACAAGTGCACAATATTTTTATTATT | 9.87 ln median PBM intensity, better of two orientations | – |
| GTGCAC_site9473 (dsDNA) DNA 1: TGTATTAACAAAAAGGTGCGGATATATATAAAAAAT DNA 2: ATTTTTTATATATATCCGCACCTTTTTGTTAATACA | 9.85 ln median PBM intensity, better of two orientations | – |
| GTGCAC_site10571 (dsDNA) DNA 1: GATTATTTCTAAAAAGTGCATATTTAAAAATCTCCT DNA 2: AGGAGATTTTTAAATATGCACTTTTTAGAAATAATC | 9.76 ln median PBM intensity, better of two orientations | – |
| GTGCAC_site9721 (dsDNA) DNA 1: TATATATATATATATGTGCACTGGACATATTTTTAT DNA 2: ATAAAAATATGTCCAGTGCACATATATATATATATA | 9.71 ln median PBM intensity, better of two orientations | – |
| GTGCAC_site10243 (dsDNA) DNA 1: ACATATTAAATATGAGTGCAATATATATATATATAA DNA 2: TTATATATATATATATTGCACTCATATTTAATATGT | 8.44 ln median PBM intensity, better of two orientations | – |
| GTGCAC_site9684 (dsDNA) DNA 1: TGTACGAGTCGTAGAGTGCAGTCTGGAGAAGAGTAC DNA 2: GTACTCTTCTCCAGACTGCACTCTACGACTCGTACA | 8.45 ln median PBM intensity, better of two orientations | – |
| GTGCAC_site10440 (dsDNA) DNA 1: TATTACACATATTATGTGCACATATATAATCAATAT DNA 2: ATATTGATTATATATGTGCACATAATATGTGTAATA | 8.5 ln median PBM intensity, better of two orientations | – |
| GTGCAC_site10065 (dsDNA) DNA 1: CTTAAAATATATTTAGTGCATATACTAATATATTAT DNA 2: ATAATATATTAGTATATGCACTAAATATATTTTAAG | 8.52 ln median PBM intensity, better of two orientations | – |
| GTGCAC_site10538 (dsDNA) DNA 1: TTATTATAATCATTAGTGCATATATTATTTTTATAT DNA 2: ATATAAAAATAATATATGCACTAATGATTATAATAA | 8.55 ln median PBM intensity, better of two orientations | – |
| GTGCAC_site9697 (dsDNA) DNA 1: GAACATTTATTGTGTGTGCACAATTCTTTTTTAACC DNA 2: GGTTAAAAAAGAATTGTGCACACACAATAAATGTTC | 8.57 ln median PBM intensity, better of two orientations | – |
| GTGCAC_site10226 (dsDNA) DNA 1: TTTTATGCGCAATAAGTGCATTTAAAATATATATAT DNA 2: ATATATATATTTTAAATGCACTTATTGCGCATAAAA | 8.59 ln median PBM intensity, better of two orientations | – |
| GTGCAC_site9445 (dsDNA) DNA 1: TCCTTTATTTTTAAAGTGCATATACATGTACATTAT DNA 2: ATAATGTACATGTATATGCACTTTAAAAATAAAGGA | 8.63 ln median PBM intensity, better of two orientations | – |
| GTGCAC_site10227 (dsDNA) DNA 1: TATACATATTTACAAGTGCATAATATTTTACAAAAA DNA 2: TTTTTGTAAAATATTATGCACTTGTAAATATGTATA | 8.65 ln median PBM intensity, better of two orientations | – |

| Binder | binding signal [1] | binding signal [2] |
| --- | --- | --- |
| GTGCAC_site10395 (dsDNA) DNA 1: ACTTTAGAAATAGAGGTGCTATTTTTATTACCACAC DNA 2: GTGTGGTAATAAAAATAGCACCTCTATTTCTAAAGT | 8.7 ln median PBM intensity, better of two orientations | – |
| CACACA_site1104 (dsDNA) DNA 1: AAAAAAAAAAAAAACACACACACAAAAAAAAATATA DNA 2: TATATTTTTTTTTGTGTGTGTGTTTTTTTTTTTTTT | – | 10.1 ln median PBM intensity, better of two orientations |
| CACACA_site757 (dsDNA) DNA 1: AAACTTGACAGACACACACACACATATATAAAAAAA DNA 2: TTTTTTTATATATGTGTGTGTGTGTCTGTCAAGTTT | – | 10.1 ln median PBM intensity, better of two orientations |
| CACACA_site5427 (dsDNA) DNA 1: TAATTATGCGGACACACACACACACCCAACTAAAAA DNA 2: TTTTTAGTTGGGTGTGTGTGTGTGTCCGCATAATTA | – | 10.1 ln median PBM intensity, better of two orientations |
| CACACA_site710 (dsDNA) DNA 1: AAAAAAAGATTATACACACACATATATAAACCTACA DNA 2: TGTAGGTTTATATATGTGTGTGTATAATCTTTTTTT | – | 10.1 ln median PBM intensity, better of two orientations |
| CACACA_site8724 (dsDNA) DNA 1: AACACATACATATATACACACACAAAATAATAAAAT DNA 2: ATTTTATTATTTTGTGTGTGTATATATGTATGTGTT | – | 10.1 ln median PBM intensity, better of two orientations |
| CACACA_site2569 (dsDNA) DNA 1: TAATTATGCAGACACACACACACACCCAACTAAAAA DNA 2: TTTTTAGTTGGGTGTGTGTGTGTGTCTGCATAATTA | – | 10.1 ln median PBM intensity, better of two orientations |
| CACACA_site9118 (dsDNA) DNA 1: AAAAAAAACGCACATACACACACACCCATATATATA DNA 2: TATATATATGGGTGTGTGTGTATGTGCGTTTTTTTT | – | 10 ln median PBM intensity, better of two orientations |
| CACACA_site399 (dsDNA) DNA 1: AACAACCAAAGGCACACACACAAAAAAAAAAATATA DNA 2: TATATTTTTTTTTTTGTGTGTGTGCCTTTGGTTGTT | – | 10 ln median PBM intensity, better of two orientations |
| CACACA_site8938 (dsDNA) DNA 1: TAATTAAATACATTAACACACACACTAATATATACA DNA 2: TGTATATATTAGTGTGTGTGTTAATGTATTTAATTA | – | 10 ln median PBM intensity, better of two orientations |
| CACACA_site8723 (dsDNA) DNA 1: TATTCCCCCCAACACACACACACACCGACATACCAC DNA 2: GTGGTATGTCGGTGTGTGTGTGTGTTGGGGGGAATA | – | 10.8 ln median PBM intensity, better of two orientations |
| CACACA_site7142 (dsDNA) DNA 1: TAGTAAAAGATATACACACACCAAAAAATATAATTA DNA 2: TAATTATATTTTTTGGTGTGTGTATATCTTTTACTA | – | 10 ln median PBM intensity, better of two orientations |
| CACACA_site4117 (dsDNA) DNA 1: TATATATATATAGACACACACACACCCATATATATA DNA 2: TATATATATGGGTGTGTGTGTGTCTATATATATATA | – | 10 ln median PBM intensity, better of two orientations |
| CACACA_site4903 (dsDNA) DNA 1: AAAAACCATTGGCACACACACATAATATATAATATA DNA 2: TATATTATATATTATGTGTGTGTGCCAATGGTTTTT | – | 10 ln median PBM intensity, better of two orientations |
| CACACA_site748 (dsDNA) DNA 1: ATTTTTTTTTTTTCCTTACACACATATTTCATTTTA DNA 2: TAAAATGAAATATGTGTGTAAGGAAAAAAAAAAAAT | – | 9.99 ln median PBM intensity, better of two orientations |
| CACACA_site7579 (dsDNA) DNA 1: TATACACATATATACACACACATATATAAATAAATA DNA 2: TATTTATTTATATATGTGTGTGTATATATGTGTATA | – | 9.98 ln median PBM intensity, better of two orientations |
| CACACA_site2053 (dsDNA) DNA 1: AAATTTATTATGAACATACACACAAAAAAAAAAAGT DNA 2: ACTTTTTTTTTTTGTGTGTATGTTCATAATAAATTT | – | 9.98 ln median PBM intensity, better of two orientations |
| CACACA_site8978 (dsDNA) DNA 1: TGAGTCTTTTACATTGCACACACATTTCTTTCCTTT DNA 2: AAAGGAAAGAAATGTGTGTGCAATGTAAAAGACTCA | – | 9.97 ln median PBM intensity, better of two orientations |
| CACACA_site5776 (dsDNA) DNA 1: ATTATAAATACACGCACACACACTTATATATATATA DNA 2: TATATATATATAAGTGTGTGTGCGTGTATTTATAAT | – | 9.96 ln median PBM intensity, better of two orientations |
| CACACA_site8200 (dsDNA) DNA 1: AAACTTAATATCGGTACACACACAAGATAAGAATTA DNA 2: TAATTCTTATCTTGTGTGTGTACCGATATTAAGTTT | – | 9.96 ln median PBM intensity, better of two orientations |
| CACACA_site7188 (dsDNA) DNA 1: GTGCATAAATCATACACACACACATATATAAATATA DNA 2: TATATTTATATATGTGTGTGTGTATGATTTATGCAC | – | 9.95 ln median PBM intensity, better of two orientations |
